Test results taken from article PMC8539644.

Biological target: GerD–mScarlet-I (Bacillus cereus ATCC 14579)
Experiment: FRET or BRET; sensitized emission (filter) FRET by wide-field fluorescence microscopy in single dormant B. cereus spores; donor SGFP2, acceptor mScarlet-I; normalized FRET (NFRET) corrected for bleed-through and cross-excitation

Row | Substance | FRET efficiency
1 | GerR(A-C-B)–SGFP2 (complex) | 6%
2 | GerRB–SGFP2 (natural protein) | 6%
